These results are taken from article PMC12017989, “Carbohydrate deacetylase, a key enzyme in oxidative chitin degradation, is evolutionarily linked to amino acid deacetylase [drawing 1]” (The Journal of Biological Chemistry, 2025).

Data set [1] relates to CC(=O)N[C@@H](C(=O)O)[C@@H](O)[C@H](O)[C@H](O)CO. Put plainly: purified protein. Conditions: 10 mM Bis-Tris pH 7.5, 30 °C, 2-120 mM substrate, Zn enzyme.
A further data set deals with T1, BbDam (Bordetella bronchiseptica, UniProt A0A0H3LXD5).
T1 construct: gene BB3285
Briefly: deacetylase activity assay. Format: biochemical. Conditions: 10 mM substrate, 50 mM Hepes pH 8.0, 30 °C.

In another data set the target is T2, AfDam (Alcaligenes faecalis, UniProt Q9AGH8).
T2 sequence (Q9AGH8 1-484): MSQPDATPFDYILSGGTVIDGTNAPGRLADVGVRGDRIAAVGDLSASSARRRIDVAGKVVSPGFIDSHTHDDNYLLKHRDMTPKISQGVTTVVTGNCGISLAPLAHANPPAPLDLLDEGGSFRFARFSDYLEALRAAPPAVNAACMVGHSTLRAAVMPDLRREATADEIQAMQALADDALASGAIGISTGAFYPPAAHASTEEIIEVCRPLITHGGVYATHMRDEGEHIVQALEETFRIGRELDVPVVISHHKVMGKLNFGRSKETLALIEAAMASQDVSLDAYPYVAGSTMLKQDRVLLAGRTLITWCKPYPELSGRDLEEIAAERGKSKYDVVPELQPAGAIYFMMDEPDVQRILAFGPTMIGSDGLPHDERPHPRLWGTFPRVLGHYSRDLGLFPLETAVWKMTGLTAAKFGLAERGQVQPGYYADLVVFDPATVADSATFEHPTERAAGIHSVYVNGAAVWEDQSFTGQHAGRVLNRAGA
Briefly: deacetylase activity assay. Format: biochemical. Conditions: 10 mM substrate, 10 mM Bis-Tris pH 7.0, 40 °C.

Another data set deals with T3, PpOngB (Pseudoalteromonas prydzensis, UniProt Z9WEX2YQL1, D368A).
T3 construct: pET-22b, His tag; E. coli BL21(DE3); residues 7-482 seen in crystal; one Zn
T3 sequence (Z9WEX2YQL1 1-489 D368A): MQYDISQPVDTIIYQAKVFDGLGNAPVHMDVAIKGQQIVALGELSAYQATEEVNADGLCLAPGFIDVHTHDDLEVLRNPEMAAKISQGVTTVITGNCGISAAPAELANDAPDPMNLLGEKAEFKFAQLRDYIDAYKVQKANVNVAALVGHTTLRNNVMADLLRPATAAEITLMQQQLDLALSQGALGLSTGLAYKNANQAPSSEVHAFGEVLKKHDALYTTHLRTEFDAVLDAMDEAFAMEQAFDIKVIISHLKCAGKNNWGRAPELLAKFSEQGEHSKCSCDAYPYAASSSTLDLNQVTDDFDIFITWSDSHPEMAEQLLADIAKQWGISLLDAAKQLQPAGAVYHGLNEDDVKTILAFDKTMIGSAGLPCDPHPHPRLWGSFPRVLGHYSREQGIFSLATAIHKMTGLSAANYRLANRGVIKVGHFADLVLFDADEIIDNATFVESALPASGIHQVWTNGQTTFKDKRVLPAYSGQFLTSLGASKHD
Put plainly: X-ray crystal structure, […] Å. Format: binding. Conditions: inactive mutant cocrystallised; active site, open-chain aldonic acid coordinating zinc.

Substrate in data set [2]: CC(=O)N[C@@H](C(=O)O)[C@@H](O)[C@H](O)[C@H](O)CO
Put plainly: ninhydrin assay of primary amine, Michaelis-Menten fit. To be noted: 10 mM Bis-Tris pH 7.5, 30 °C, 2-120 mM substrate, Zn enzyme. The data set is classed as biochemical, Pseudoalteromonas maricaloris. The text has this: ninhydrin assay of primary amine, Michaelis-Menten fit on PfOngB

Substrate in data set [3]: CC(=O)N[C@@H](C(=O)O)[C@@H](O)[C@H](O)[C@H](O)CO
The data set is described as above. Format: biochemical, Pseudoalteromonas prydzensis. Conditions: 10 mM Bis-Tris pH 7.5, 30 °C, 2-120 mM substrate, Zn enzyme. The text has this: ninhydrin assay of primary amine, Michaelis-Menten fit on PpOngB

Broadly, the Km is the concentration of substrate that gives half-maximal velocity. As usually defined, the Vmax is the top rate of the reaction or transport when substrate is in excess. As usually defined, the kcat is the number of substrate molecules converted per active site and unit of time at saturation. Broadly, the kcat/Km is the second-order rate constant that governs catalysis at low substrate concentration.

T1 sequence (A0A0H3LXD5 entry or part of it): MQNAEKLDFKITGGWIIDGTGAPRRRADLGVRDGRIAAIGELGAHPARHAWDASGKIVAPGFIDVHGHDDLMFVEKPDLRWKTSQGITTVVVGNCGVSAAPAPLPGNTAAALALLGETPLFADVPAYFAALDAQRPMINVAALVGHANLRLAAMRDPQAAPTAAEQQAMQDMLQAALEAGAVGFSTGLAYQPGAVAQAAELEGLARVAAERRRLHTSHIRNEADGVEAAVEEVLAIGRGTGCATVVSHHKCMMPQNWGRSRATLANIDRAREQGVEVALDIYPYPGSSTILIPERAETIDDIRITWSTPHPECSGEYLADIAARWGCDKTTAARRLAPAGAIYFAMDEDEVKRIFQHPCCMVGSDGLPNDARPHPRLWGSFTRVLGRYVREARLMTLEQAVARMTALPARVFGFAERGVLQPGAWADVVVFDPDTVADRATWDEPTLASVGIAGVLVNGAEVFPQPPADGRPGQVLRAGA

With PaOngB (Pseudoalteromonas arabiensis), in data set [1], the Km is 9.1 ± 0.8 mM, the Vmax was 6.3 µmol/min/mg, the kcat was 5.5 ± 0.3 s⁻¹ and the kcat/Km stood at 600 M⁻¹ s⁻¹.
As for `CC(=O)N[C@H](CCC(=O)O)C(=O)O` [N-acetyl-D-glutamate], the deacetylase activity assay result on BbDam was “enzymatic activities of BbDam and its mutants”.
`CSCC[C@@H](NC(C)=O)C(=O)O` [N-acetyl-D-methionine]: the deacetylase activity assay result on AfDam was “enzymatic activities of AfDam and its mutants”.
As for `CC(=O)N[C@@H](C(=O)O)[C@@H](O)[C@H](O)[C@H](O)CO` [GlcNAc1A, 2-(acetylamino)-2-deoxy-D-gluconic acid], the “X-ray crystal structure, 2.29 Å” value on PpOngB is given as “crystal structure of PpOngB in complex with GlcNAc1A (the PpOngB-GlcNAc1A complex)”.

B1: PfOngB (Pseudoalteromonas maricaloris) (protein)
chain: MLSSSPYVDTLIQGATVYFEPDSEAQVVDVAISKDKIVALGNCSHLQALQCIDATGLVLAPGFIDVHTHDDLEVLRGPYMLSKVSQGVTTVIAGNCGISAVPYCADQAPLDPINLLGEQSEFAYRELQDYQHAFSKAAPSVNLATLVGHTTLRAQVMTDLSQAANAQELEQMKTLLHQAMAQGAIGFSTGLAYYNAKGASQAEVNALAEVVTPFDGIYTTHLRTEFQGVIRAMDEAFATAEHAKLPLVISHIKCAGRENWGRAPEVLAHFELHRKTHPVSCDCYPYAASSSTLDLNQVTEETDIFITWSESHPELAQQSLANIATQWQVSQRDAAKRLQPAGAVYHCMLEDDVQRFVSYEHSMVGSDGLPCDPHPHPRLWGTFPRVLGHYCREQQSLPLALAIHKMTALPAARFKLRQRGNIQIGYFADLVLFDPNRVLDQASYSNPKQLASGIVKVWVNGKLSYVEGANADTIVDFGRAGRFLTRQN
notes: recombinant, cloned like PpOngB (pET-22b, His tag)
Take B1: in data set [2], the Km is recorded as 17.2 ± 1.0 mM, the Vmax came out at 13.4 µmol/min/mg, the kcat was determined as 11.9 ± 0.7 s⁻¹ and the kcat/Km was determined as 700 M⁻¹ s⁻¹.

B2: PpOngB (Pseudoalteromonas prydzensis) (protein)
chain: MQYDISQPVDTIIYQAKVFDGLGNAPVHMDVAIKGQQIVALGELSAYQATEEVNADGLCLAPGFIDVHTHDDLEVLRNPEMAAKISQGVTTVITGNCGISAAPAELANDAPDPMNLLGEKAEFKFAQLRDYIDAYKVQKANVNVAALVGHTTLRNNVMADLLRPATAAEITLMQQQLDLALSQGALGLSTGLAYKNANQAPSSEVHAFGEVLKKHDALYTTHLRTEFDAVLDAMDEAFAMEQAFDIKVIISHLKCAGKNNWGRAPELLAKFSEQGEHSKCSCDAYPYAASSSTLDLNQVTDDFDIFITWSDSHPEMAEQLLADIAKQWGISLLDAAKQLQPAGAVYHGLNEDDVKTILAFDKTMIGSDGLPCDPHPHPRLWGSFPRVLGHYSREQGIFSLATAIHKMTGLSAANYRLANRGVIKVGHFADLVLFDADEIIDNATFVESALPASGIHQVWTNGQTTFKDKRVLPAYSGQFLTSLGASKHD
notes: pET-22b, His tag; E. coli BL21(DE3); residues 7-482 seen in crystal; one Zn
On to B2, for which, in data set [3], the Km is 9.8 ± 0.8 mM, the Vmax came to 17.4 µmol/min/mg, the kcat worked out at 15.4 ± 1.3 s⁻¹ and the kcat/Km was 1600 M⁻¹ s⁻¹.

B3: PpOngB (Pseudoalteromonas prydzensis; S292T) (protein)
chain: MQYDISQPVDTIIYQAKVFDGLGNAPVHMDVAIKGQQIVALGELSAYQATEEVNADGLCLAPGFIDVHTHDDLEVLRNPEMAAKISQGVTTVITGNCGISAAPAELANDAPDPMNLLGEKAEFKFAQLRDYIDAYKVQKANVNVAALVGHTTLRNNVMADLLRPATAAEITLMQQQLDLALSQGALGLSTGLAYKNANQAPSSEVHAFGEVLKKHDALYTTHLRTEFDAVLDAMDEAFAMEQAFDIKVIISHLKCAGKNNWGRAPELLAKFSEQGEHSKCSCDAYPYAASSTTLDLNQVTDDFDIFITWSDSHPEMAEQLLADIAKQWGISLLDAAKQLQPAGAVYHGLNEDDVKTILAFDKTMIGSDGLPCDPHPHPRLWGSFPRVLGHYSREQGIFSLATAIHKMTGLSAANYRLANRGVIKVGHFADLVLFDADEIIDNATFVESALPASGIHQVWTNGQTTFKDKRVLPAYSGQFLTSLGASKHD
notes: as for B2
For B3, in data set [3], the Km was determined as 54.2 ± 1.8 mM, the Vmax stood at 1.3 µmol/min/mg and the kcat stood at 1.1 ± 0.1 s⁻¹.

B4: PpOngB (Pseudoalteromonas prydzensis; Q298N) (protein)
chain: MQYDISQPVDTIIYQAKVFDGLGNAPVHMDVAIKGQQIVALGELSAYQATEEVNADGLCLAPGFIDVHTHDDLEVLRNPEMAAKISQGVTTVITGNCGISAAPAELANDAPDPMNLLGEKAEFKFAQLRDYIDAYKVQKANVNVAALVGHTTLRNNVMADLLRPATAAEITLMQQQLDLALSQGALGLSTGLAYKNANQAPSSEVHAFGEVLKKHDALYTTHLRTEFDAVLDAMDEAFAMEQAFDIKVIISHLKCAGKNNWGRAPELLAKFSEQGEHSKCSCDAYPYAASSSTLDLNNVTDDFDIFITWSDSHPEMAEQLLADIAKQWGISLLDAAKQLQPAGAVYHGLNEDDVKTILAFDKTMIGSDGLPCDPHPHPRLWGSFPRVLGHYSREQGIFSLATAIHKMTGLSAANYRLANRGVIKVGHFADLVLFDADEIIDNATFVESALPASGIHQVWTNGQTTFKDKRVLPAYSGQFLTSLGASKHD
notes: as for B2
As for B4, in data set [3], the Km is on record as 53.4 ± 2.5 mM, the Vmax stood at 9.4 µmol/min/mg and the kcat turned out to be 8.3 ± 0.3 s⁻¹.

B5: PpOngB (Pseudoalteromonas prydzensis; Q298A) (protein)
chain: MQYDISQPVDTIIYQAKVFDGLGNAPVHMDVAIKGQQIVALGELSAYQATEEVNADGLCLAPGFIDVHTHDDLEVLRNPEMAAKISQGVTTVITGNCGISAAPAELANDAPDPMNLLGEKAEFKFAQLRDYIDAYKVQKANVNVAALVGHTTLRNNVMADLLRPATAAEITLMQQQLDLALSQGALGLSTGLAYKNANQAPSSEVHAFGEVLKKHDALYTTHLRTEFDAVLDAMDEAFAMEQAFDIKVIISHLKCAGKNNWGRAPELLAKFSEQGEHSKCSCDAYPYAASSSTLDLNAVTDDFDIFITWSDSHPEMAEQLLADIAKQWGISLLDAAKQLQPAGAVYHGLNEDDVKTILAFDKTMIGSDGLPCDPHPHPRLWGSFPRVLGHYSREQGIFSLATAIHKMTGLSAANYRLANRGVIKVGHFADLVLFDADEIIDNATFVESALPASGIHQVWTNGQTTFKDKRVLPAYSGQFLTSLGASKHD
notes: as for B2
In the case of B5, in data set [3], the Km stood at 59.7 ± 5.0 mM, the Vmax came out at 7.7 µmol/min/mg and the kcat stood at 6.8 ± 0.6 s⁻¹.
